What follows are sequences tested on Escherichia coli TOP10 (assay: shrunken log2 fold change of peptide-encoding DNA abundance (4.5 h post-induction vs induction); higher = less antimicrobial activity (less host growth inhibition)). Conditions: time post-induction: 4.5 h; library: site-saturation at positions 5, 18, 19, 20.
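Further: peptides expressed intracellularly from a pBAD plasmid library in pooled LB shake-flask culture, induced with 0.3% L-arabinose, DNA abundance read by NGS, three biological replicates, DESeq2 with apeglm shrinkage.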

Sequence | shrunken log2 fold change
RRIRCRPPRLPRPRPRPVMVPRP | -0.211
RRIRGRPPRLPRPRPRPYVMPRP | -0.0513
RRIRQRPPRLPRPRPRPDIQPRP | 0.00127
RRIRRRPPRLPRPRPRPWSDPRP | -0.107
RRIRDRPPRLPRPRPRPDYRPRP | -0.241
RRIRQRPPRLPRPRPRPDTYPRP | -0.154
RRIRNRPPRLPRPRPRPMWIPRP | -0.148
RRIRTRPPRLPRPRPRPHQVPRP | -0.0174
RRIRVRPPRLPRPRPRPPGPPRP | 0.533
RRIRARPPRLPRPRPRPFYQPRP | -0.00727
RRIRGRPPRLPRPRPRPSNEPRP | 0.131
RRIRLRPPRLPRPRPRPHDCPRP | -0.0305
RRIRGRPPRLPRPRPRPHIQPRP | 0.192
RRIRTRPPRLPRPRPRPRFIPRP | -0.806
RRIRCRPPRLPRPRPRPWFSPRP | -0.208
RRIRHRPPRLPRPRPRPRKCPRP | -0.116
RRIRTRPPRLPRPRPRPQMYPRP | -0.148
RRIRDRPPRLPRPRPRPMVNPRP | -0.0813
RRIRPRPPRLPRPRPRPTGMPRP | 0.141
RRIRIRPPRLPRPRPRPIHKPRP | -0.782
RRIRDRPPRLPRPRPRPSELPRP | -0.184
RRIRCRPPRLPRPRPRPWCYPRP | -0.831
RRIRGRPPRLPRPRPRPWSIPRP | -0.108
RRIRIRPPRLPRPRPRPFRFPRP | -0.392
RRIRPRPPRLPRPRPRPGMWPRP | 0.303

Sequence | shrunken log2 fold change
RRIRARPPRLPRPRPRPICIPRP | 0.227
RRIRGRPPRLPRPRPRPWKQPRP | 0.152
RRIRYRPPRLPRPRPRPCQNPRP | 0.0275
RRIRDRPPRLPRPRPRPCGCPRP | 0.317
RRIRWRPPRLPRPRPRPWERPRP | 0.142
RRIRMRPPRLPRPRPRPVERPRP | 0.015
RRIRIRPPRLPRPRPRPWVHPRP | -0.0605
RRIRVRPPRLPRPRPRPQEAPRP | -0.0448
RRIRTRPPRLPRPRPRPCCSPRP | 0.123
RRIRCRPPRLPRPRPRPPQAPRP | 0.735
RRIRWRPPRLPRPRPRPNVIPRP | -0.161
RRIRMRPPRLPRPRPRPEPWPRP | 1.3
RRIRFRPPRLPRPRPRPVLEPRP | 0.00555
RRIRYRPPRLPRPRPRPSNRPRP | -0.134
RRIRRRPPRLPRPRPRPVDVPRP | 1.09
RRIRERPPRLPRPRPRPNFQPRP | 0.0442
RRIRVRPPRLPRPRPRPQSFPRP | -0.111
RRIRCRPPRLPRPRPRPKAEPRP | 0.173
RRIRGRPPRLPRPRPRPALTPRP | 0.874
RRIRHRPPRLPRPRPRPWREPRP | -0.0297
RRIRTRPPRLPRPRPRPIEHPRP | 0.0859
RRIRNRPPRLPRPRPRPGTKPRP | 0.0372
RRIRYRPPRLPRPRPRPAAEPRP | 0.22
RRIRGRPPRLPRPRPRPAPDPRP | 1.07
RRIRTRPPRLPRPRPRPDPMPRP | -0.0555

Sequence | shrunken log2 fold change
RRIRSRPPRLPRPRPRPKTFPRP | -0.24
RRIRARPPRLPRPRPRPFRVPRP | -0.19
RRIRSRPPRLPRPRPRPCLYPRP | -0.198
RRIRDRPPRLPRPRPRPDNPPRP | -0.159
RRIRMRPPRLPRPRPRPLVGPRP | 0.73
RRIRPRPPRLPRPRPRPKFVPRP | -0.0877
RRIRKRPPRLPRPRPRPIKWPRP | 0.00487
RRIRQRPPRLPRPRPRPWFEPRP | -0.00226
RRIRGRPPRLPRPRPRPTDGPRP | 0.361
RRIRKRPPRLPRPRPRPMATPRP | 0.329
RRIRTRPPRLPRPRPRPEEKPRP | 0.167
RRIRCRPPRLPRPRPRPDKHPRP | -0.333
RRIRYRPPRLPRPRPRPTSIPRP | -0.656
RRIRKRPPRLPRPRPRPPKMPRP | 0.383
RRIRGRPPRLPRPRPRPAKNPRP | 0.554
RRIRYRPPRLPRPRPRPNIGPRP | -0.105
RRIRHRPPRLPRPRPRPACSPRP | -0.104
RRIRSRPPRLPRPRPRPARMPRP | -0.0672
RRIRDRPPRLPRPRPRPYTRPRP | -0.0984
RRIRVRPPRLPRPRPRPDDPPRP | 0.359
RRIRPRPPRLPRPRPRPSSWPRP | 0.104
RRIRARPPRLPRPRPRPCQFPRP | -0.0602
RRIRYRPPRLPRPRPRPKEQPRP | 0.00489
RRIRIRPPRLPRPRPRPCYVPRP | -0.411
RRIRWRPPRLPRPRPRPEHKPRP | 0.278

Sequence | shrunken log2 fold change
RRIRLRPPRLPRPRPRPLLSPRP | -0.327
RRIRVRPPRLPRPRPRPHPQPRP | -0.0987
RRIRARPPRLPRPRPRPKWMPRP | 0.191
RRIRQRPPRLPRPRPRPAAQPRP | -0.00152
RRIRSRPPRLPRPRPRPANAPRP | 0.438
RRIRCRPPRLPRPRPRPLCVPRP | -0.481
RRIRQRPPRLPRPRPRPWAWPRP | -0.0707
RRIRERPPRLPRPRPRPNTDPRP | -0.554
RRIRCRPPRLPRPRPRPLCAPRP | 0.12
RRIRNRPPRLPRPRPRPFDLPRP | -0.176
RRIRLRPPRLPRPRPRPVEWPRP | -0.228
RRIRGRPPRLPRPRPRPSKMPRP | 0.0491
RRIRIRPPRLPRPRPRPDQYPRP | -0.0181
RRIRHRPPRLPRPRPRPILDPRP | 0.0523
RRIRIRPPRLPRPRPRPEELPRP | -0.0241
RRIRRRPPRLPRPRPRPMIRPRP | 0.272
RRIRTRPPRLPRPRPRPKKGPRP | -0.0611
RRIRTRPPRLPRPRPRPGGDPRP | 0.46
RRIRGRPPRLPRPRPRPYNDPRP | -0.155
RRIRTRPPRLPRPRPRPYPWPRP | -0.178
RRIRLRPPRLPRPRPRPILCPRP | -0.152
RRIRGRPPRLPRPRPRPQWVPRP | 0.218
RRIRARPPRLPRPRPRPRSRPRP | 0.757
RRIRHRPPRLPRPRPRPTPPPRP | 0.391
RRIRCRPPRLPRPRPRPWTCPRP | -0.323

Sequence | shrunken log2 fold change
RRIRSRPPRLPRPRPRPTWRPRP | 0.424
RRIRQRPPRLPRPRPRPLIAPRP | -0.124
RRIRFRPPRLPRPRPRPKPEPRP | 0.37
RRIRLRPPRLPRPRPRPSKPPRP | -0.0779
RRIRMRPPRLPRPRPRPDMEPRP | 0.00931
RRIRARPPRLPRPRPRPWKEPRP | 0.00952
RRIRVRPPRLPRPRPRPLNRPRP | -0.328
RRIRCRPPRLPRPRPRPKGCPRP | 0.00419
RRIRIRPPRLPRPRPRPPEPPRP | 0.105
RRIRFRPPRLPRPRPRPQMTPRP | -0.169
RRIRKRPPRLPRPRPRPVLKPRP | 0.185
RRIRQRPPRLPRPRPRPGSYPRP | -0.2
RRIRCRPPRLPRPRPRPHHMPRP | -1.36
RRIRHRPPRLPRPRPRPLDDPRP | -0.172
RRIRKRPPRLPRPRPRPCMRPRP | 0.0327
RRIRFRPPRLPRPRPRPSMRPRP | 0.377
RRIRDRPPRLPRPRPRPNSQPRP | -0.283
RRIRARPPRLPRPRPRPISEPRP | 0.0696
RRIRKRPPRLPRPRPRPKTEPRP | -0.0466
RRIRARPPRLPRPRPRPSKVPRP | -0.0951
RRIRGRPPRLPRPRPRPHTTPRP | 0.333
RRIRHRPPRLPRPRPRPLGFPRP | 0.114
RRIRARPPRLPRPRPRPQFKPRP | -0.0331
RRIRVRPPRLPRPRPRPHAAPRP | 0.156
RRIRVRPPRLPRPRPRPCYPPRP | -0.327

Sequence | shrunken log2 fold change
RRIRHRPPRLPRPRPRPAFHPRP | -0.152
RRIRYRPPRLPRPRPRPSMTPRP | -0.817
RRIRCRPPRLPRPRPRPYDMPRP | -0.726
RRIRARPPRLPRPRPRPLIAPRP | 0.504
RRIRCRPPRLPRPRPRPVWTPRP | 0.0232
RRIRDRPPRLPRPRPRPKQDPRP | 0.172
RRIRKRPPRLPRPRPRPAFVPRP | 0.423
RRIRQRPPRLPRPRPRPGFTPRP | -0.11
RRIRSRPPRLPRPRPRPGEAPRP | 0.287
RRIRPRPPRLPRPRPRPWPCPRP | 0.0872
RRIRERPPRLPRPRPRPPSFPRP | -0.126
RRIRLRPPRLPRPRPRPVRMPRP | 0.494
RRIRYRPPRLPRPRPRPLIVPRP | -0.895
RRIRGRPPRLPRPRPRPFTLPRP | -0.109
RRIRARPPRLPRPRPRPHYAPRP | -0.0521
RRIRGRPPRLPRPRPRPWGWPRP | 1.15
RRIRYRPPRLPRPRPRPEIYPRP | -0.279
RRIRKRPPRLPRPRPRPLGYPRP | 0.202
RRIRIRPPRLPRPRPRPIGLPRP | -0.242
RRIRNRPPRLPRPRPRPDYAPRP | -0.0367
RRIRCRPPRLPRPRPRPDATPRP | 1.31
RRIRNRPPRLPRPRPRPNVMPRP | -0.16
RRIRLRPPRLPRPRPRPNVEPRP | -0.211
RRIRCRPPRLPRPRPRPENEPRP | 0.113
RRIRWRPPRLPRPRPRPMPIPRP | 0.0953

From the supplement of paper PMC9112550, “Optimization of the antimicrobial peptide Bac7 by deep mutational scanning” (BMC Biology, 2022)
